The values below come from article PMC8247599.

In one data set the target is Khc 855-941 (Drosophila melanogaster, UniProt P17210 855-941). The experiment in a line: EMSA. (In general: Mobility shift assays separate free from complexed probe on a gel.)
For a further data set, the target named is Khc-FL (Drosophila melanogaster, UniProt P17210 1-975). The experiment in a line: EMSA.
Khc-FL, sequence (P17210 whole entry): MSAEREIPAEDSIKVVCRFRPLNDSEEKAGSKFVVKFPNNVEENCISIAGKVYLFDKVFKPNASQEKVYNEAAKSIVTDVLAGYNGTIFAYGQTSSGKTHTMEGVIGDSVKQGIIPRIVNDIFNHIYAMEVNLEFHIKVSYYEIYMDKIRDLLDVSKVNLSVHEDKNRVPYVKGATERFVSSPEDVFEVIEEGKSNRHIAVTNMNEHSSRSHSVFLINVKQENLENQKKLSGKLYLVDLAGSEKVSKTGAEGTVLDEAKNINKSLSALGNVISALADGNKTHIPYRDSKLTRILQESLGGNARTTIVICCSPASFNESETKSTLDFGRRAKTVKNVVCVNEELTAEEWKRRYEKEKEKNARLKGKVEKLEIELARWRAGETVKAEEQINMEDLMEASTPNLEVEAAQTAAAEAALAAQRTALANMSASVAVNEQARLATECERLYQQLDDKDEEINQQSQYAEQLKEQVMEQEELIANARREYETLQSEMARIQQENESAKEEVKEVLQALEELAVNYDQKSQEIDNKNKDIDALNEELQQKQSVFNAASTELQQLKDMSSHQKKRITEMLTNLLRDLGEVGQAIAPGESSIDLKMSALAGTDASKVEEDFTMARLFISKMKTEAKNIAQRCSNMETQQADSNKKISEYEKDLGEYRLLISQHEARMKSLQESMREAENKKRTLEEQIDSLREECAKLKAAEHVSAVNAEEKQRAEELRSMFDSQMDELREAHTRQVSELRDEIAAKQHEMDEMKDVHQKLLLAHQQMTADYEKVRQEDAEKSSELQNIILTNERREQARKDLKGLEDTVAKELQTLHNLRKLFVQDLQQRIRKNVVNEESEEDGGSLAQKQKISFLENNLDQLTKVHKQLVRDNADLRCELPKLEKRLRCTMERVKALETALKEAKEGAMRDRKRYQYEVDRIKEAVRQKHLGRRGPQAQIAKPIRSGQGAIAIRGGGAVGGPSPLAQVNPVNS

Khc 855-941, sequence (P17210 855-941): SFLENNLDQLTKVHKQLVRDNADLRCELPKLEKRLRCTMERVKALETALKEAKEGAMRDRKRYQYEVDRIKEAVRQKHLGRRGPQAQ

B1: oligo-(U25) RNA (ssRNA)
RNA: UUUUUUUUUUUUUUUUUUUUUUUUU
With B1, the binding result with Khc 855-941 and with Khc-FL was “binds” throughout.
